Values quoted from earlier work in article PMC12362618, “Development of the First Small-Molecule Inhibitor Targeting Oncostatin M for Treatment of Breast Cancer” (Journal of Medicinal Chemistry, 2025).

Target: gp130 (Homo sapiens) (UniProt P40189)
Sequence (P40189 23-619): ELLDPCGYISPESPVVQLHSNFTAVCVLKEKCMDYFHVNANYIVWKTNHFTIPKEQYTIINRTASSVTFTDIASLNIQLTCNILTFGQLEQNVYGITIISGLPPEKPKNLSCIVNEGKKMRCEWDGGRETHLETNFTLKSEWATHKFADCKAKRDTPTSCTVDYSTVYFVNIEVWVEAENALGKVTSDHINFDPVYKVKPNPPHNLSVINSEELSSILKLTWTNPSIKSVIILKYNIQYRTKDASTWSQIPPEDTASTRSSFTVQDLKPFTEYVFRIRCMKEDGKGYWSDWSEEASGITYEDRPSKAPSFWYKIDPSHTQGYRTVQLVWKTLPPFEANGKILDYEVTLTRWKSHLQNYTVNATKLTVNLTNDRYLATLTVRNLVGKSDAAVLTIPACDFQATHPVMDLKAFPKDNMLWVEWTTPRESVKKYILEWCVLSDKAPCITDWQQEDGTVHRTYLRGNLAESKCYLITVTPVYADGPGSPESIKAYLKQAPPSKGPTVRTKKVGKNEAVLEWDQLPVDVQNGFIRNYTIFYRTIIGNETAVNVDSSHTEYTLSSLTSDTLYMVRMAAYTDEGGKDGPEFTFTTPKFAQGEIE

OSM, sequence (P13725 26-221): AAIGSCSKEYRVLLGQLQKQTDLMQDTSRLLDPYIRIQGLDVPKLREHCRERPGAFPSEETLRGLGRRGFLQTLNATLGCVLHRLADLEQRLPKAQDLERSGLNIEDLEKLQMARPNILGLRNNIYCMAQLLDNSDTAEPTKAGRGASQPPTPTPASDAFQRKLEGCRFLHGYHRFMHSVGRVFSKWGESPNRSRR

Kd: 22.7 nM
Substance: OSM (from UniProt P13725)
